The values below come from paper PMC8446450, “Autosomal Recessive Cutis Laxa 1C Mutations Disrupt the Structure and Interactions of Latent TGFβ Binding Protein-4” (Frontiers in Genetics, 2021).

Assay [1] concerns the target Latent TGFβ binding protein-4 (LTBP4S) C-terminal region, ARCL1C mutant C1186R (human). Briefly: SPR; ProteOn, LTBP4 C-terminal constructs amine-coupled on GLC chip, fibrillin-1 PF3 injected 100-3.1 nM, 10 mM HEPES, 150 mM NaCl, pH 7.4, 0.005% Tween-20, 25°C; steady state (equilibrium) analysis.
Assay [2] concerns the target Tropoelastin (SHELdelta26A). Briefly: BLI; OctetRED96, biotinylated tropoelastin on streptavidin biosensors, LTBP4 C-terminal constructs 375-23.4 nM, 10 mM HEPES, 150 mM NaCl, pH 7.4, 0.005% Tween-20, 25°C; steady state analysis.
Assay [3] addresses T1, Tropoelastin (SHELdelta26A) (biotin where immobilised on streptavidin biosensors (position not given)).
T1 chain: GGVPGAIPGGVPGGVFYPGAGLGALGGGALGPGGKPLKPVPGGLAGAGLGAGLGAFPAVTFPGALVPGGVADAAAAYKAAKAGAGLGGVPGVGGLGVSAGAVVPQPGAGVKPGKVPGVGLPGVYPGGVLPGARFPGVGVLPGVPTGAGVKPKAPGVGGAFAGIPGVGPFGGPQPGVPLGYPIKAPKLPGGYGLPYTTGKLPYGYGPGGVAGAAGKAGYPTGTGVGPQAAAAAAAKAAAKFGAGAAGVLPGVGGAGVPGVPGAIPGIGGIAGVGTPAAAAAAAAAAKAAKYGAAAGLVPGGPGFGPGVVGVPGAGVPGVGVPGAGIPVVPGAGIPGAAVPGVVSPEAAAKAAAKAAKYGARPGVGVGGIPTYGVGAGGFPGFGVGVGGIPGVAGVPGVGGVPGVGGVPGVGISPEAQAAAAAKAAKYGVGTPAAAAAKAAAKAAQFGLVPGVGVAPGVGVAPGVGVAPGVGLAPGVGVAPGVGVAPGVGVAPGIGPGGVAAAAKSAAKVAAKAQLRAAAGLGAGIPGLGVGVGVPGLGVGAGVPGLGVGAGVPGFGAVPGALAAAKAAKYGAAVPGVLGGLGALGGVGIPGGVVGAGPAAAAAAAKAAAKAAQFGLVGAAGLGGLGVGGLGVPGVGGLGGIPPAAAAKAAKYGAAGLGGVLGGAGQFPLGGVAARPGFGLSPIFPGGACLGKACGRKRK
In words: BLI.

Take “Fibrillin-1 PF3 fragment (from UniProt P35555 45-722) (domain or fragment)”: the equilibrium dissociation constant (Kd) in assay [1] was found to be 40.2 nM.

B1: Latent TGFβ binding protein-4 (LTBP4S) C-terminal region, ARCL1C mutant C1186R (domain or fragment)
chain: RECYFDTAAPDACDNILARNVTWQECCCTVGEGWGSGCRIQQRPGTETAEYQSLCPHGRGYLAPSGDLSLRRDVDECQLFRDQVCKSGVCVNTAPGYSCYCSNGYYYHTQRLECIDNDECADEEPACEGGRCVNTVGSYHCTCEPPLVLDGSQRRCVSNESQSLDDNLGVCWQEVGADLVCSHPRLDRQATYTECCCLYGEAWGMDCALCPAQDSDDFEALCNVLRPPAYSPPRPGGFGLPYEYGPDLGPPYQGLPYGPELYPPPALPYDPYPPPPGPFARREAPYGAPRFDMPDFEDDGGPYGESEAPAPPGPGTRWPYRSRDTRRSFPEPEEPPEGGSYAGSLAEPYEELEAEECGILDGCTNGRCVRVPEGFTCRCFDGYRLDMTRMACVDINECDEAEAASPLCVNARCLNTDGSFRCICRPGFAPTHQPHHCAPARPRA
For the molecule B1, the Kd in assay [2] was found to be 154 nM; in assay [3] it was 55.9 nM.
